The target in assay [1] is soluble SorCS2 (extracellular domain of SorCS2), immobilized on the Biacore chip (Homo sapiens in the sequence list; not stated for the assay) (UniProt Q96PQ0). Kind of assay: SPR (BIAcore), soluble SorCS2 immobilized, propeptide at 20 nM and 50 nM.
In assay [2] the target is T1, soluble SorCS2 (extracellular domain of SorCS2), immobilized on the Biacore chip (Homo sapiens in the sequence list; not …, UniProt Q96PQ0 51-1078).
T1 construct: also called immobilized soluble SorCS2
In words: SPR (BIAcore), soluble SorCS2 immobilized, BDNF at 10 nM and 20 nM. On the technique in general: In SPR one partner is held on a chip, and binding of the other changes the refractive index at the surface.

Assay [3] deals with T1, soluble SorCS2 (extracellular domain of …). In words: SPR (BIAcore), soluble SorCS2 immobilized, p75 ECD at 1 uM. Here is the method:
FIG. 6: Physical interaction between SorCS2 and p75^NTR. A, HEK293 cells stably transfected with SorCS2 and p75^NTR encoding vectors were crosslinked with DSP (Pierce) and subsequently lysed. The cell lysate was incubated with antibody against SorCS2 bound to Gammabind beads (GE Healthcare). The precitated complexes were eluted from the washed beads with SDS loading buffer. […] The presence of p75^NTR and IgG heavy is indicated. HEK293 cells stably transfected with a p75^NTR encoding plasmid alone were used as negative control. B, surface plasmon resonance experiment (BIAcore) showing the direct interaction of soluble full-length extracellular domain of p75^NTR (p75 ECD) with immobilized soluble SorCS2. The p75 ECD concentration used was 1 μM.
HEK293 cells stably transfected with plasmids encoding SorCS2 and p75^NTR were crosslinked with DSP (Pierce) and subsequently lysed. The cell lysate was incubated with antibody against SorCS2 bound to Gammabind beads (GE Healthcare). Precipitated complexes were eluted from the washed beads with SDS loading buffer. […] A biosensor chip from Biacore (CM5, cat.no. BR-1000-14) was activated using the NHS/EDC method as described by the supplier followed by coating with SorCS2 (FIG. 6B).

Kd data for 3 molecules are collected here from patent publication US20120052075A1 (H LUNDBECK A S, published 2012).

T1 sequence (Q96PQ0 51-1078 S716P limits assumed): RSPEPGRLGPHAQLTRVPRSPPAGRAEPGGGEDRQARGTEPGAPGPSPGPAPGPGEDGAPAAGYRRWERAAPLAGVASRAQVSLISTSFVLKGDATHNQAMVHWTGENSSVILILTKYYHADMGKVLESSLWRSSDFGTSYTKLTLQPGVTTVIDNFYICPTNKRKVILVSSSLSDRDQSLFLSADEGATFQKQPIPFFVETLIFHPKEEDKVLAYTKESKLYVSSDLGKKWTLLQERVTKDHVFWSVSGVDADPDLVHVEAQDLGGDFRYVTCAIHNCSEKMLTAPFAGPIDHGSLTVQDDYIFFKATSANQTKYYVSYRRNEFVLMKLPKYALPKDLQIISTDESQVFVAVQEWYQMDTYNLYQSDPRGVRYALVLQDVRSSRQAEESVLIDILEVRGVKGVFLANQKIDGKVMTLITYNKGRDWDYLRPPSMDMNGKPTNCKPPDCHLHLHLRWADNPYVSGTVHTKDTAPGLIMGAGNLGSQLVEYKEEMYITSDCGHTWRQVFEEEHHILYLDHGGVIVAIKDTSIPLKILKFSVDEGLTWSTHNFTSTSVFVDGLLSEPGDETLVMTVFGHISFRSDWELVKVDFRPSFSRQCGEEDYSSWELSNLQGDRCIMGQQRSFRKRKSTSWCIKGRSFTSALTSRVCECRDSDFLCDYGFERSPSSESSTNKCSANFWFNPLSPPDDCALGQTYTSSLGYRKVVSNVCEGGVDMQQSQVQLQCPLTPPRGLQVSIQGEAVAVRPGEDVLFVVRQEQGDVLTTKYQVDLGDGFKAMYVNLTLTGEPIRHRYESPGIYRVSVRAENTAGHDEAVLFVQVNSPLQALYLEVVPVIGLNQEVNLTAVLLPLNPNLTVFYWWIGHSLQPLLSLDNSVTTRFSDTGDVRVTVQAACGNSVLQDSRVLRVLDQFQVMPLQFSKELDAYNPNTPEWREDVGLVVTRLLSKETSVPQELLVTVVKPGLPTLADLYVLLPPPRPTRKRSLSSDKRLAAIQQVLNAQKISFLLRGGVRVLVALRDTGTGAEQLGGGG
Sequence of soluble SorCS2 (extracellular domain of SorCS2), immobilized on the Biacore chip (Homo sapiens in the sequence list; not stated for the assay) (Q96PQ0 51-1078 S716P limits assumed): as above

On to “BDNF propeptide (from UniProt P23560 19-128) (ligand)”, for which the equilibrium dissociation constant (Kd) (commonly the concentration at which binding is half-saturated) in assay [1] worked out at 15 nM.

B1: mature BDNF (ligand)
chain: HSDPARRGELSVCDSISEWVTAADKKTAVDMSGGTVTVLEKVPVSKGQLKQYFYETKCNPMGYTKEGCRGIDKRHWNSQCRTTQSYVRALTMDSKKRIGWRFIRIDTSCVCTLTIKRGR
In the case of B1, the Kd in assay [2] turned out to be 5 nM.

B2: soluble full-length extracellular domain of p75^NTR (receptor)
chain: KEACPTGLYTHSGECCKACNLGEGVAQPCGANQTVCEPCLDSVTFSDVVSATEPCKPCTECVGLQSMSAPCVEADDAVCRCAYGYYQDETTGRCEACRVCEAGSGLVFSCQDKQNTVCEECPDGTYSDEANHVDPCLPCTVCEDTERQLRECTRWADAECEEIPGRWITRSTPPEGSDSTAPSTQEPEAPPEQDLIASTVAGVVTTVMGSSQPVVTRGTTDN
notes: Whole entry named; also called p75 ECD
B2 yielded a Kd in assay [3] of about 10 nM.
